Data from PMC5052618, “Activation of Xer-recombination at dif: structural basis of the FtsKγ–XerD interaction” (Scientific Reports, 2016).

Target: T1, C-terminal domain of XerD (XerDC), as part of the XerDC-FtsKγ fusion protein (E. coli, UniProt P0A8P8 111-298)
T1 construct: XerD tyrosine recombinase, E. coli, residues 111 to 298 (C-terminal, catalytic domain); also called XerD C-terminal domain; XerD portion of XerDC–γ; source: overproduced from pBad24, purified (Ni2+ resin, HiTrap heparin HP, HiTrap Q HP)
T1 sequence (looked up): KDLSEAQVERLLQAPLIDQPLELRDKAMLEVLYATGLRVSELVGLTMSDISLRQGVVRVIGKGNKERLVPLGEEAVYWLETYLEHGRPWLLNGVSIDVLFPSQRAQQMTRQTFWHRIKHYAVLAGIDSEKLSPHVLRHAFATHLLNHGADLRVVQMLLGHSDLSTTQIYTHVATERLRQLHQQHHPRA
Assay: crystal structure; XerDC (XerD 111-298) and FtsKγ (FtsK 1261-1329) joined on one chain by a 16 amino acid linker; hanging drop, 100 mM Bicine (pH9), 10% (w/v) polyethylene glycol 8000; molecular replacement, 2.3 Å
Conditions: both partners purified

B1: FtsKγ domain, as part of the XerDC-FtsKγ fusion protein (domain or fragment, E. coli, UniProt P46889 1261-1329, looked up)
chain: GAEELDPLFDQAVQFVTEKRKASISGVQRQFRIGYNRAARIIEQMEAQGIVSEQGHNGNREVLAPPPFD
notes: FtsK DNA translocase, E. coli, residues 1261 to 1329 (γ domain, very C-terminus); In the functional rows with m4 it is the γ portion of the full length XerD-FtsKγ fusion, from which the crystallised fusion was amplified; also called γ domain of FtsK; source: overproduced from pBad24, purified (Ni2+ resin, HiTrap heparin HP, HiTrap Q HP)
Q: Does B1 bind?
A: binds
